Data as given in patent US20240002501A1.
Values belong to the substance of their own block, whether it stands above or below them.

Assays:
[1] = biological target: L1-CAM on L1-CAM(+) human tumor cells (human) (UniProt P32004); assay: flow cytometry, MESO 11 mesothelioma cells (control)
[2] = biological target: L1-CAM on L1-CAM(+) human tumor cells (human) (UniProt P32004); assay: flow cytometry, MSTO-21H mesothelioma cells (control)
[3] = biological target: L1-CAM on L1-CAM(+) human tumor cells (human) (UniProt P32004); assay: flow cytometry, MESO 9 mesothelioma cells (control)
[4] = biological target: L1-CAM on L1-CAM(+) human tumor cells (human) (UniProt P32004); assay: flow cytometry, JMN mesothelioma cells (control)
[5] = biological target: L1-CAM on L1-CAM(+) human tumor cells (human) (UniProt P32004); assay: flow cytometry, VAMT mesothelioma cells (control)
[6] = biological target: L1-CAM on L1-CAM(+) human tumor cells (human) (UniProt P32004); assay: flow cytometry, NCI-H2052 mesothelioma cells (control)
[7] = biological target: L1-CAM on L1-CAM(+) human tumor cells (human) (UniProt P32004); assay: flow cytometry, MESO 10 mesothelioma cells (control)
[8] = biological target: L1-CAM on L1-CAM(+) human tumor cells (human) (UniProt P32004); assay: flow cytometry, MSTO mesothelioma cells (control)
[9] = biological target: L1-CAM on L1-CAM(+) human tumor cells (human) (UniProt P32004); assay: flow cytometry, MESO 34 mesothelioma cells (control)
[10] = biological target: L1-CAM on L1-CAM(+) human tumor cells (human) (UniProt P32004); assay: flow cytometry, MESO 47 mesothelioma cells (control)
[11] = biological target: L1-CAM on L1-CAM(+) human tumor cells (human) (UniProt P32004); assay: flow cytometry, SKMEL28 melanoma cells (control)
[12] = biological target: L1-CAM on L1-CAM(+) human tumor cells (human) (UniProt P32004); assay: flow cytometry, RH30 rhabdomyosarcoma cells (control)
[13] = biological target: L1-CAM on L1-CAM(+) human tumor cells (human) (UniProt P32004); assay: flow cytometry, HTB67 melanoma cells (control)
[14] = biological target: L1-CAM on L1-CAM(+) human tumor cells (human) (UniProt P32004); assay: flow cytometry, RH28 rhabdomyosarcoma cells (control)
[15] = biological target: L1-CAM on L1-CAM(+) human tumor cells (human) (UniProt P32004); assay: flow cytometry, IMR32 LUC NB cells (control)
[16] = biological target: L1-CAM on L1-CAM(+) human tumor cells (human) (UniProt P32004); assay: flow cytometry, NCI-H82 SCLC cells (control)
[17] = biological target: L1-CAM on L1-CAM(+) human tumor cells (human) (UniProt P32004); assay: flow cytometry, UM SCC 22B HNSCC cells (control)
[18] = biological target: L1-CAM on L1-CAM(+) human tumor cells (human) (UniProt P32004); assay: flow cytometry, TC71 EWS cells (control)
[19] = biological target: L1-CAM on L1-CAM(+) human tumor cells (human) (UniProt P32004); assay: flow cytometry, NCI-H524 SCLC cells (control)
[20] = biological target: L1-CAM on L1-CAM(+) human tumor cells (human) (UniProt P32004); assay: flow cytometry, LAN-1 NB cells (control)
[21] = biological target: L1-CAM on L1-CAM(+) human tumor cells (human) (UniProt P32004); assay: flow cytometry, RG143B osteosarcoma cells (control)
[22] = biological target: L1-CAM on L1-CAM(+) human tumor cells (human) (UniProt P32004); assay: flow cytometry, SKNCM NB cells (control)
[23] = biological target: L1-CAM on L1-CAM(+) human tumor cells (human) (UniProt P32004); assay: flow cytometry, RH36 rhabdomyosarcoma cells (control)
[24] = biological target: L1-CAM on L1-CAM(+) human tumor cells (human) (UniProt P32004); assay: flow cytometry, HTB-41 A253 submaxillary salivary gland cells (control)
[25] = biological target: L1-CAM on L1-CAM(+) human tumor cells (human) (UniProt P32004); assay: flow cytometry, SKELP EWS cells (control)
[26] = biological target: L1-CAM on L1-CAM(+) human tumor cells (human) (UniProt P32004); assay: flow cytometry, A4573 EWS cells (control)
[27] = biological target: L1-CAM on L1-CAM(+) human tumor cells (human) (UniProt P32004); assay: flow cytometry, MCF7 breast CA cells (control)
[28] = biological target: L1-CAM on L1-CAM(+) human tumor cells (human) (UniProt P32004); assay: flow cytometry, ACC 104 M-07e AML cells (control)
[29] = biological target: L1-CAM on L1-CAM(+) human tumor cells (human) (UniProt P32004); assay: flow cytometry, SKEPR EWS cells (control)
[30] = biological target: L1-CAM on L1-CAM(+) human tumor cells (human) (UniProt P32004); assay: flow cytometry, SKERT EWS cells (control)
[31] = biological target: L1-CAM on L1-CAM(+) human tumor cells (human) (UniProt P32004); assay: flow cytometry, RH41 rhabdomyosarcoma cells (control)
[32] = biological target: L1-CAM on L1-CAM(+) human tumor cells (human) (UniProt P32004); assay: flow cytometry, HPB-T ALL cells (control)
[33] = biological target: L1-CAM on L1-CAM(+) human tumor cells (human) (UniProt P32004); assay: flow cytometry, SKEFM EWS cells (control)
[34] = biological target: L1-CAM on L1-CAM(+) human tumor cells (human) (UniProt P32004); assay: flow cytometry, RH48 rhabdomyosarcoma cells (control)
[35] = biological target: L1-CAM on L1-CAM(+) human tumor cells (human) (UniProt P32004); assay: flow cytometry, SKNMC EWS cells (control)
[36] = biological target: L1-CAM on L1-CAM(+) human tumor cells (human) (UniProt P32004); assay: flow cytometry, NCI-H345 SCLC cells (control)
[37] = biological target: L1-CAM on L1-CAM(+) human tumor cells (human) (UniProt P32004); assay: flow cytometry, TC32 EWS cells (control)
[38] = biological target: L1-CAM on L1-CAM(+) human tumor cells (human) (UniProt P32004); assay: flow cytometry, HTB82 rhabdomyosarcoma cells (control)
[39] = biological target: L1-CAM on L1-CAM(+) human tumor cells (human) (UniProt P32004); assay: flow cytometry, M14 melanoma cells (control)
[40] = biological target: L1-CAM on L1-CAM(+) human tumor cells (human) (UniProt P32004); assay: flow cytometry, U2OS osteosarcoma cells (control)
[41] = biological target: L1-CAM on L1-CAM(+) human tumor cells (human) (UniProt P32004); assay: flow cytometry, 5838 EWS cells (control)
[42] = biological target: L1-CAM on L1-CAM(+) human tumor cells (human) (UniProt P32004); assay: flow cytometry, HTB25 breast CA cells (control)
[43] = biological target: L1-CAM on L1-CAM(+) human tumor cells (human) (UniProt P32004); assay: flow cytometry, SW480 CRC cells (control)
[44] = biological target: L1-CAM on L1-CAM(+) human tumor cells (human) (UniProt P32004); assay: flow cytometry, AU565 breast CA cells (control)
[45] = biological target: L1-CAM on L1-CAM(+) human tumor cells (human) (UniProt P32004); assay: flow cytometry, THP-1 AML cells (control)
[46] = biological target: L1-CAM on L1-CAM(+) human tumor cells (human) (UniProt P32004); assay: flow cytometry, CRL1427 osteosarcoma cells (control)
[47] = biological target: L1-CAM on L1-CAM(+) human tumor cells (human) (UniProt P32004); assay: flow cytometry, CHP-100 EWS cells (control)
[48] = biological target: L1-CAM on L1-CAM(+) human tumor cells (human) (UniProt P32004); assay: flow cytometry, SKES-1 EWS cells (control)
[49] = biological target: L1-CAM on L1-CAM(+) human tumor cells (human) (UniProt P32004); assay: flow cytometry, NCI-H69 SCLC cells (control)
[50] = biological target: L1-CAM on L1-CAM(+) human tumor cells (human) (UniProt P32004); assay: flow cytometry, SKNMM LUC NB cells (control)
[51] = biological target: L1-CAM on L1-CAM(+) human tumor cells (human) (UniProt P32004); assay: flow cytometry, HCC1954 breast CA cells (control)
[52] = biological target: L1-CAM on L1-CAM(+) human tumor cells (human) (UniProt P32004); assay: flow cytometry, 8402 ALL cells (control)
[53] = biological target: L1-CAM on L1-CAM(+) human tumor cells (human) (UniProt P32004); assay: flow cytometry, SKEAW EWS cells (control)
[54] = biological target: L1-CAM on L1-CAM(+) human tumor cells (human) (UniProt P32004); assay: flow cytometry, HTB24 breast CA cells (control)

Sequence of L1-CAM on L1-CAM(+) human tumor cells (human) (P32004 20-1257 limits assumed): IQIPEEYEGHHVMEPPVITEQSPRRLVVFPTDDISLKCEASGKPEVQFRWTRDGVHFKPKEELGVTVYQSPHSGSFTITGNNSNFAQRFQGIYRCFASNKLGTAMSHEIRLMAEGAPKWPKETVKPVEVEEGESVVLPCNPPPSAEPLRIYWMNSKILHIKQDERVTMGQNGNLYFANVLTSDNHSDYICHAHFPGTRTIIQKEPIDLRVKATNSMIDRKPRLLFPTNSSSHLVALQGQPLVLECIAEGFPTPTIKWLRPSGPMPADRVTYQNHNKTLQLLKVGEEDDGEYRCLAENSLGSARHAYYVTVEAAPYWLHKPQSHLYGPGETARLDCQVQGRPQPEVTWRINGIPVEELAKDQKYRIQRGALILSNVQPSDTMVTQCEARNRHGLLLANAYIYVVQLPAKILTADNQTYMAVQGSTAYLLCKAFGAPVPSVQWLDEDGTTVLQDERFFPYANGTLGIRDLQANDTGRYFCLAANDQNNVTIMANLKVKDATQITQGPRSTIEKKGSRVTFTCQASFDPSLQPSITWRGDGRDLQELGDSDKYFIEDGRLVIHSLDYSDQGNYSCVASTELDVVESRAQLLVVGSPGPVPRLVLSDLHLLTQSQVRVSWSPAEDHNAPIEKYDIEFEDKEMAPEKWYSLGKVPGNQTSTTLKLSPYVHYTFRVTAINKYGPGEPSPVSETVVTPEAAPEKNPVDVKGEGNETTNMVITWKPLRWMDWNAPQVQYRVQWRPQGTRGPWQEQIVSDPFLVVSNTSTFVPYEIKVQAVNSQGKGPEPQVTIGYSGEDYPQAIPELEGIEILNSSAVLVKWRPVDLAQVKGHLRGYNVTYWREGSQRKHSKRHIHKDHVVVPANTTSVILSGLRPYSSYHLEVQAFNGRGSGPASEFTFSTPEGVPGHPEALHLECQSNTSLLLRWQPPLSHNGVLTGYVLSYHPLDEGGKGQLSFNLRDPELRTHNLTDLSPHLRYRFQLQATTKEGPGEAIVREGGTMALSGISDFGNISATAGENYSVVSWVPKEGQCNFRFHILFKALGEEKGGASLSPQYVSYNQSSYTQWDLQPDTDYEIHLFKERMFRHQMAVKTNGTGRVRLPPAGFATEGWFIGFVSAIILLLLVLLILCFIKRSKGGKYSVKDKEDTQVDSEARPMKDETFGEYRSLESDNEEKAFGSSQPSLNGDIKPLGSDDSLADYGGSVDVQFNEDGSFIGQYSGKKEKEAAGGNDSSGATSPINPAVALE

MFI [1]: 5
MFI [2]: 5
MFI [3]: 5
MFI [4]: 5
MFI [5]: 5
MFI [6]: 5
MFI [7]: 5
MFI [8]: 5
MFI [9]: 5
MFI [10]: 5
Substance: MOPC 21 (antibody)

MFI [11]: 5
MFI [12]: 5
MFI [13]: 5
MFI [14]: 5
MFI [15]: 4
MFI [16]: 5
MFI [17]: 5
MFI [18]: 5
MFI [19]: 3
MFI [20]: 6
MFI [21]: 5
MFI [22]: 5
MFI [23]: 5
MFI [24]: 5
MFI [25]: 5
MFI [26]: 5
MFI [27]: 5
MFI [28]: 5
MFI [29]: 3
MFI [30]: 5
MFI [31]: 5
MFI [32]: 5
MFI [33]: 5
MFI [34]: 5
MFI [35]: 5
MFI [36]: 3
MFI [37]: 5
MFI [38]: 5
MFI [39]: 5
MFI [40]: 5
MFI [41]: 5
MFI [42]: 5
MFI [43]: 5
MFI [44]: 5
MFI [45]: 5
MFI [46]: 5
MFI [47]: 5
MFI [48]: 5
MFI [49]: 4
MFI [50]: 4
MFI [51]: 5
MFI [52]: 4
MFI [53]: 5
MFI [54]: 6
Substance: Rituxan (antibody)
